Columns and labels:
[1] = type: physicochemical; details: for Solubility in Milli-Q water (pH 7.0): from lyophilized solid, Milli-Q water pH 7.0, visual (transparent solution), also with sonication, 5b purified, 5c crude; for Solubilizing solvents (Table S1): list of the solvents used to solubilize the molecules; for Solubility in acidic eluent used for HRESIMS: mixture of MeOH and water containing 0.1% formic acid
Experimental: The water solubility of C60–peptide conjugates 5a–c was tested after the removal of any remaining solvent traces by lyophilization. […]
Solubility of C60–oligopeptides 5a–c
Table S1. List of the solubilizing solvents for compounds 5a-5c. […]

[2] = Photoinduced 1O2 generation by ESR spin trapping with 4-oxo-TEMP; details: green LED 527 nm, 1 min or 10 min; PS 40 μM, 4-oxo-TEMP 80 mM, 60 mM phosphate buffer pH 7.0, O2-bubbled, 296 K
Experimental: To preliminarily evaluate the synthesized C60–oligo-Lys (5a) as a PS, generation of singlet oxygen was measured by the ESR spin trapping method under irradiation of visible light (527 nm green LED). 4-Oxo-TEMP was used as a spin trapping reagent to form an adduct with ^1O2, i.e., 4-oxo-TEMPO, which was observed by ESR (Figure 7b).
Figure 7 a) X-band ESR spectra of the 4-oxo-TEMP adduct with ^1O2 generated by C60–oligo-Lys (5a) and rose bengal (RB), respectively, in aqueous solutions under irradiation with a green LED lamp (527 nm) for 1 min or 10 min. PS: 40 μM, 4-oxo-TEMP: 80 mM, in 60 mM phosphate buffer (pH 7.0). Measurement conditions: temperature 296 K, microwave frequency 10.03 GHz, microwave power 10 mW, receiver gain 5.0 × 10^4, modulation amplitude 1.00 G, modulation frequency 100 KHz, sweep time 83.89 s, number of scans: 1. b) Scheme for the photoinduced ^1O2 generation by C60 and reaction with spin trapping reagent 4-oxo-TEMP to form 4-oxo-TEMPO.
Detection of photoinduced 1O2 generation by ESR spin trapping
ESR measurements were carried out on a Bruker spectrometer equipped with a microwave bridge X-band ER. […]
1O2 generation was detected through the 1O2 adduct of 4-oxo-TEMP generated in an aqueous solution of C60−oligo-Lys (5a) and rose bengal as reference under irradiation by a green LED (527 nm). […]

NCCCC[C@H](NC(=O)[C@H](CCCCN)NC(=O)[C@H](CCCCN)NC(=O)[C@H](CCCCN)NC(=O)[C@H](CCCCN)NC(=O)CCCNC(=O)CC(CC(=O)NCCCC(=O)N[C@@H](CCCCN)C(=O)N[C@@H](CCCCN)C(=O)N[C@@H](CCCCN)C(=O)N[C@@H](CCCCN)C(=O)N[C@@H](CCCCN)C(=O)O)N1CC23c4c5c6c7c8c9c(c%10c%11c2c2c4c4c%12c5c5c6c6c8c8c%13c9c9c%10c%10c%11c%11c2c2c4c4c%12c%12c5c5c6c8c6c8c%13c9c9c%10c%10c%11c2c2c4c4c%12c5c6c5c8c9c%10c2c45)C73C1)C(=O)O (stereo partly shown) [5a, C60–oligo-Lys]
Solubility in Milli-Q water (pH 7.0) [1]: immediately and thoroughly solubilized
Solubilizing solvents (Table S1) [1]: water (pH 4.0–9.2), MeOH, DMSO
Solubility in nonpolar solvents ([1]; most nonpolar solvents, including toluene and CH2Cl2): not highly soluble
Solubility in other polar solvents ([1]; other polar solvents, including MeOH and DMSO): slightly soluble

O=C(O)CC[C@H](NC(=O)[C@H](CCC(=O)O)NC(=O)[C@H](CCC(=O)O)NC(=O)[C@H](CCC(=O)O)NC(=O)[C@H](CCC(=O)O)NC(=O)CCCNC(=O)CC(CC(=O)NCCCC(=O)N[C@@H](CCC(=O)O)C(=O)N[C@@H](CCC(=O)O)C(=O)N[C@@H](CCC(=O)O)C(=O)N[C@@H](CCC(=O)O)C(=O)N[C@@H](CCC(=O)O)C(=O)O)N1CC23c4c5c6c7c8c9c(c%10c%11c2c2c4c4c%12c5c5c6c6c8c8c%13c9c9c%10c%10c%11c%11c2c2c4c4c%12c%12c5c5c6c8c6c8c%13c9c9c%10c%10c%11c2c2c4c4c%12c5c6c5c8c9c%10c2c45)C73C1)C(=O)O (stereo partly shown) [5b, C60–oligo-Glu]
Solubility in Milli-Q water (pH 7.0) [1]: did not produce transparent solutions
Solubilizing solvents (Table S1) [1]: 25 mM TRIS buffer (pH > 8.3), 2% NaOD in D2O (pH 13.7)
Solubility in acidic eluent used for HRESIMS [1]: insolubility

N=C(N)NCCC[C@H](NC(=O)[C@H](CCCNC(=N)N)NC(=O)[C@H](CCCNC(=N)N)NC(=O)[C@H](CCCNC(=N)N)NC(=O)[C@H](CCCNC(=N)N)NC(=O)CCCNC(=O)CC(CC(=O)NCCCC(=O)N[C@@H](CCCNC(=N)N)C(=O)N[C@@H](CCCNC(=N)N)C(=O)N[C@@H](CCCNC(=N)N)C(=O)N[C@@H](CCCNC(=N)N)C(=O)N[C@@H](CCCNC(=N)N)C(=O)O)N1CC23c4c5c6c7c8c9c(c%10c%11c2c2c4c4c%12c5c5c6c6c8c8c%13c9c9c%10c%10c%11c%11c2c2c4c4c%12c%12c5c5c6c8c6c8c%13c9c9c%10c%10c%11c2c2c4c4c%12c5c6c5c8c9c%10c2c45)C73C1)C(=O)O (stereo partly shown) [5c, C60–oligo-Arg]
Solubility in Milli-Q water (pH 7.0) [1]: did not produce transparent solutions
Solubilizing solvents (Table S1) [1]: insoluble in most solvents
Solubility in acidic eluent used for HRESIMS [1]: slightly soluble
Solubility in polar and nonpolar solvents ([1]; most polar and nonpolar solvents): not soluble in most polar and nonpolar solvents
Solubility over the tested pH value range ([1]; tested pH value range 4.0–9.2): remained insoluble

O=C([O-])c1c(Cl)c(Cl)c(Cl)c(Cl)c1-c1c2cc(I)c(=O)c(I)c-2oc2c(I)c([O-])c(I)cc12.[Na+].[Na+] [rose bengal]
1O2 generation under visible light irradiation (ESR signal of 4-oxo-TEMPO) [2]: three peaks corresponding to 4-oxo-TEMPO were observed

From paper PMC11022410, “Synthesis and characterization of water-soluble C60–peptide conjugates” (Beilstein Journal of Organic Chemistry, 2024)
